Measured values as given in patent US20220041658A1 (PROTAGONIST THERAPEUTICS, published 2022).
Starred links: 1 amine or outer side, 2 acyl side, 3 side chain; linkers in the order of their positions; H or OH if unused. Positions of bridges follow the written chain, without caps; N, C: chain ends. Non-standard residues stand in square brackets, D forms with d. Trp(6-Et) = 6-ethyl-tryptophan, CCc1ccc2c(C[C@H](N[*:1])C(=O)[*:2])c[nH]c2c1; Trp(7-nPr) = CCCc1cccc2c(C[C@H](N[*:1])C(=O)[*:2])c[nH]c12; Trp(7-OMe) = COc1cccc2c(C[C@H](N)C(=O)O)c[nH]c12; Trp(7-Me) = Cc1cccc2c(C[C@H](N)C(=O)O)c[nH]c12; Trp(2-Me) = Cc1[nH]c2ccccc2c1C[C@H](N)C(=O)O; Trp(1-Me) = Cn1cc(C[C@H](N)C(=O)O)c2ccccc21; 2Nal = N[C@@H](Cc1ccc2ccccc2c1)C(=O)O; AEF = NCCOc1ccc(C[C@H](N)C(=O)O)cc1; Cit = NC(=O)NCCC[C@H](N)C(=O)O; Pen = CC(C)(S)[C@H](N)C(=O)O; hLeu = CC(C)CC[C@H](N)C(=O)O; αMeK = C[C@](N)(CCCCN)C(=O)O; Abu = CC[C@H](N)C(=O)O; Aib = CC(C)(N)C(=O)O; βAla = NCCC(=O)O

T1: interleukin-23 receptor (IL-23R) (human, UniProt Q5VWK5 24-629)
T1 sequence (looked up): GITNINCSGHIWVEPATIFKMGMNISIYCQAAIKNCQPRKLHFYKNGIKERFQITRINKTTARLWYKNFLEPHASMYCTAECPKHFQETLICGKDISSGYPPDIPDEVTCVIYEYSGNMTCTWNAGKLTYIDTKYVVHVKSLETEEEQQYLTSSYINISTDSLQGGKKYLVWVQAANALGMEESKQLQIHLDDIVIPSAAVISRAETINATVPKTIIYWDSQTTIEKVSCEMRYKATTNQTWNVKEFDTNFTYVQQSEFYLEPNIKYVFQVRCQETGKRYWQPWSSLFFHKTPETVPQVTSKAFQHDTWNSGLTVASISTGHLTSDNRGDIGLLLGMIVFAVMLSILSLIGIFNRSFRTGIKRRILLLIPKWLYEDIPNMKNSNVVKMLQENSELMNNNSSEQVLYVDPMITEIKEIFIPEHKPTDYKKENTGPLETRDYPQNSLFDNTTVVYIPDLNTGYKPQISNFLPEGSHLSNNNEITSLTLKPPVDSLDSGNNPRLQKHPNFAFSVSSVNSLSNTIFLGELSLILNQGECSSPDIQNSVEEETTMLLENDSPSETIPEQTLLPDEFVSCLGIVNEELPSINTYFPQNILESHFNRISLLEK


Legend:
[1] = target: T1, interleukin-23 receptor (IL-23R); experiment: cell-based or functional assay
[2] = target: T1, interleukin-23 receptor (IL-23R); experiment: cell-based or functional assay; remark: listed apart in the source

Row | NK Cell Assay IC50 [1] | pStat3 HTRF IC50 [2] | Binder
1 | 45.5 nM | 12.7 nM | Ac-[Pen]NT[Trp(6-Et)]K(Ac)[Pen][AEF][2Nal][αMeK]K(Ac)N[dK]-NH2 (disulfide 1-6 (inferred)) [Peptide of SEQ ID NO: 349]
2 | 6.3 nM | 3.03 nM | XNTXKXXXXXNL (Ac-[Pen]-N-T-[W(7-Me)]-[Lys(Ac)]-[Pen]-Phe[4-(2-aminoethoxy)]-[2-Nal]-[a-MeLys]-[Lys(octanoic)]-N-[(D)Leu]-NH2; Pen-Pen disulfide) [Peptide of SEQ ID NO: 358]
3 | 2.1 nM | 0.322 nM | Ac-[Pen]NT[Trp(7-Me)][Cit][Pen][AEF][2Nal][αMeK]K(Ac)N[Aib][βAla]-NH2 (disulfide 1-6 (inferred)) [Peptide of SEQ ID NO: 340]
4 | 4.52 nM | 0.55 nM | Ac-[Pen]ST[Trp(7-Me)]K(Ac)[Pen][AEF][2Nal][αMeK]K(Ac)N[dL]-NH2 (disulfide 1-6 (inferred)) [Peptide of SEQ ID NO: 334]
5 | 7.1 nM | 0.715 nM | Ac-[Pen]NT[Trp(7-Me)]K(Ac)[Pen][AEF][Trp(2-Me)][αMeK]K(Ac)N[dK]-NH2 (disulfide 1-6 (inferred)) [Peptide of SEQ ID NO: 353]
6 | 5.34 nM | 0.456 nM | XNTXKXXXXXNL (Ac-[Pen]-N-T-[W(7-Me)]-[Lys(Ac)]-[Pen]-Phe[4-(2-aminoethoxy)]-[2-Nal]-[a-MeLys]-[Lys(Ala)]-N-[(D)Leu]-NH2; Pen-Pen disulfide) [Peptide of SEQ ID NO: 355]
7 | 4.01 nM | 0.193 nM | XNTXKXXXXXNL (Ac-[Pen]-N-T-[W(7-Me)]-[Lys(Ac)]-[Pen]-Phe[4-(2-aminoethoxy)]-[2-Nal]-[a-MeLys]-[Lys(IVA)]-N-[(D)Leu]-NH2; Pen-Pen disulfide) [Peptide of SEQ ID NO: 356]
8 | 3.8 nM | 0.331 nM | XNTXKXXXXXNL (not fully specified; Ac-[Pen]-N-T-[W(7-Me)]-[Lys(Ac)]-[Pen]-Phe[4-(2-aminoethoxy)]-[2-Nal]-[a-MeLys]-[Lys(cyclohexyl)]-N-[(D)Leu]-NH2; Pen-Pen disulfide) [Peptide of SEQ ID NO: 357]
9 | 3.5 nM | 0.927 nM | XNTXKXXXXKSK (Ac-[Pen]-N-T-[W(7-Me)]-[Lys(Ac)]-[Pen]-Phe[4-(2-aminoethoxy)]-[2-Nal]-[a-MeLys]-[Lys(Ac)]-S-[(D)Lys]-NH2; Pen-Pen disulfide) [Peptide of SEQ ID NO: 352]
10 | 9.35 nM | 27 nM | Ac-[dR][Abu]QT[Trp(7-Me)]K(Ac)C[AEF][2Nal][αMeK]K(Ac)N[dK]-NH2 (thioether 2-7 (inferred)) [Peptide of SEQ ID NO: 324]
11 | 1.62 nM | 0.283 nM | XNTXKXXXXKNN (Ac-[Pen]-N-T-[W(7-Me)]-[Lys(Ac)]-[Pen]-Phe[4-(2-aminoethoxy)]-[2-Nal]-[a-MeLeu]-[Lys(Ac)]-N-[(D)Asn]-NH2; Pen-Pen disulfide) [Peptide of SEQ ID NO: 354]
12 | 11.1 nM | 0.779 nM | Ac-[Pen][hLeu]T[Trp(7-Me)]K(Ac)[Pen][AEF][2Nal][αMeK]K(Ac)N[dL]-NH2 (disulfide 1-6 (inferred)) [Peptide of SEQ ID NO: 337]
13 | 12.7 nM | 4.45 nM | Ac-[dR][Abu]QT[Trp(7-Me)]K(Ac)C[AEF][2Nal][αMeK]K(Ac)N[dL]-NH2 (thioether 2-7 (inferred)) [Peptide of SEQ ID NO: 325]

The remaining lines, values behind:

Row | Binder | NK Cell Assay IC50 [1] | pStat3 HTRF IC50 [2]
14 | XNTXQXXXXKHX (Ac-[Pen]-NT-[W(7-Me)]-Q-[Pen]-Phe[4-(2-aminoethoxy)]-[2-Nal]-[a-MeLeu]-[Lys(Ac)]-H-[bA]-NH2; Pen-Pen disulfide) [Peptide of SEQ ID NO: 214] | 6.3 nM | 1.53 nM
15 | XNTXKXXXXKNL (Ac-[Pen]-N-T-[W(7-OMe)]-[Lys(Ac)]-[Pen]-Phe[4-(2-aminoethoxy)]-[2-Nal]-[a-MeLys]-[Lys(Ac)]-N-[(D)Leu]-NH2; Pen-Pen disulfide) [Peptide of SEQ ID NO: 288] | – | 1.48 nM
16 | XNTXQXXXXKPX (Ac-[Pen]-NT-[W(7-Me)]-Q-[Pen]-Phe[4-(2-aminoethoxy)]-[2-Nal]-[a-MeLeu]-[Lys(Ac)]-[(D)Pro]-[bA]-NH2; Pen-Pen disulfide) [Peptide of SEQ ID NO: 212] | 157 nM | 36.5 nM
17 | XNTXKXXXXKNK (Ac-[Pen]-N-T-[W(7-OMe)]-[Lys(Ac)]-[Pen]-Phe[4-(2-aminoethoxy)]-[2-Nal]-[a-MeLys]-[Lys(Ac)]-N-[(D)Lys]-NH2; Pen-Pen disulfide) [Peptide of SEQ ID NO: 299] | – | 2.86 nM
18 | Ac-[Pen]NT[Trp(7-OMe)][Cit][Pen][AEF][2Nal][αMeK]K(Ac)N[dK]-NH2 (disulfide 1-6 (inferred)) [Peptide of SEQ ID NO: 300] | – | > 1 µM
19 | XNTXQXXXXKNK (Ac-[Pen]-N-T-[W(5-CN)]-Q-[Pen]-Phe[4-(2-aminoethoxy)]-[2-Nal]-[a-MeLys]-[Lys(Ac)]-N-[(D)Lys]-NH2; Pen-Pen disulfide) [Peptide of SEQ ID NO: 296] | – | 6.29 nM
20 | XNTXXXXXXKNL (Ac-[Pen]-N-T-[W(7-Me)]-[Lys(IVA)]-[Pen]-Phe[4-(2-aminoethoxy)]-[2-Nal]-[a-MeLys]-[Lys(Ac)]-N-[(D)Leu]-NH2; Pen-Pen disulfide) [Peptide of SEQ ID NO: 315] | – | 1.41 nM
21 | XNTXQXXXXENX (Ac-[Pen]-N-T-[W(7-Me)]-Q-[Pen]-Phe[4-(2-aminoethoxy)]-[2-Nal]-[a-MeLys]-E-N-[bA]-NH2; Pen-Pen disulfide) [Peptide of SEQ ID NO: 282] | – | 1.37 nM
22 | XNTXQXXXXKNX (Ac-[Pen]-NT-[W(7-Me)]-Q-[Pen]-Phe[4-(2-aminoethoxy)]-[2-Nal]-[a-MeLeu]-[Lys(Ac)]-N-[bA]-NH2; Pen-Pen disulfide) [Peptide of SEQ ID NO: 201] | 3.06 nM | 1.05 nM
23 | Ac-[Pen]NT[Trp(7-Me)]K(Ac)[Pen][His_Bzl][2Nal][αMeK]K(Ac)N[dL]-NH2 (disulfide 1-6 (inferred)) [Peptide of SEQ ID NO: 292] | – | 128 nM
24 | Ac-[Pen]NT[Trp(7-Me)]Q[Pen][AEF][Trp(1-Me)][αMeK]K(Ac)N[βAla]-NH2 (disulfide 1-6) [Peptide of SEQ ID NO: 283] | – | 4.52 nM
25 | XNTXQXXXXKFX (Ac-[Pen]-NT-[W(7-Me)]-Q-[Pen]-Phe[4-(2-aminoethoxy)]-[2-Nal]-[a-MeLeu]-[Lys(Ac)]-[(D)Phe]-[bA]-NH2; Pen-Pen disulfide) [Peptide of SEQ ID NO: 213] | 60 nM | 35.5 nM
26 | Ac-[Pen]NT[Trp(7-Me)]K(Ac)[Pen][His_3Bom][2Nal][αMeK]K(Ac)N[dL]-NH2 (disulfide 1-6 (inferred)) [Peptide of SEQ ID NO: 291] | – | > 1 µM
27 | Ac-[Pen]NT[Trp(7-Me)][Cit][Pen][AEF][2Nal][αMeK][Cit][βAla][βAla]-NH2 (disulfide 1-6; SMILES CC(=O)N[C@@H]1C(=O)N[C@@H](CC(N)=O)C(=O)N[C@@H]([C@@H](C)O)C(=O)N[C@@H](Cc2c[nH]c3c(C)cccc23)C(=O)N[C@@H](CCCNC(N)=O)C(=O)N[C@H](C(=O)N[C@@H](Cc2ccc(OCCN)cc2)C(=O)N[C@@H](Cc2ccc3ccccc3c2)C(=O)N[C@@](C)(CCCCN)C(=O)N[C@@H](CCCNC(N)=O)C(=O)NCCC(=O)NCCC(N)=O)C(C)(C)SSC1(C)C) [Peptide of SEQ ID NO: 281] | – | 17.7 nM
28 | Ac-[Pen]NT[Trp(7-i-Pr)]K(Ac)[Pen][AEF][2Nal][αMeK]K(Ac)N[dL]-NH2 (disulfide 1-6 (inferred)) [Peptide of SEQ ID NO: 286] | – | 1.61 nM
29 | XNTXXXXXXKNL (not fully specified; Ac-[Pen]-N-T-[W(7-Me)]-[Lys(cyclohexyl)]-[Pen]-Phe[4-(2-aminoethoxy)]-[2-Nal]-[a-MeLys]-[Lys(Ac)]-N-[(D)Leu]-NH2; Pen-Pen disulfide) [Peptide of SEQ ID NO: 316] | – | 5.6 nM
30 | XNTXXXXXXKNL (Ac-[Pen]-N-T-[W(7-Me)]-[Lys(Gly)]-[Pen]-Phe[4-(2-aminoethoxy)]-[2-Nal]-[a-MeLys]-[Lys(Ac)]-N-[(D)Leu]-NH2; Pen-Pen disulfide) [Peptide of SEQ ID NO: 320] | 3.35 nM | 0.632 nM
31 | Ac-[Pen]NT[Trp(7-nPr)]K(Ac)[Pen][AEF][2Nal][αMeK]K(Ac)N[dL]-NH2 (disulfide 1-6; SMILES CCCc1cccc2c(C[C@@H]3NC(=O)[C@H]([C@@H](C)O)NC(=O)[C@H](CC(N)=O)NC(=O)[C@@H](NC(C)=O)C(C)(C)SSC(C)(C)[C@@H](C(=O)N[C@@H](Cc4ccc(OCCN)cc4)C(=O)N[C@@H](Cc4ccc5ccccc5c4)C(=O)N[C@@](C)(CCCCN)C(=O)N[C@@H](CCCCNC(C)=O)C(=O)N[C@@H](CC(N)=O)C(=O)N[C@H](CC(C)C)C(N)=O)NC(=O)[C@H](CCCCNC(C)=O)NC3=O)c[nH]c12) [Peptide of SEQ ID NO: 285] | – | 0.849 nM
32 | XNTXQXXXXKNK (Ac-[Pen]-N-T-[W(7-OMe)]-Q-[Pen]-Phe[4-(2-aminoethoxy)]-[2-Nal]-[a-MeLys]-[Lys(Ac)]-N-[(D)Lys]-NH2; Pen-Pen disulfide) [Peptide of SEQ ID NO: 297] | – | 1.04 nM
33 | XNTXXXXXXKNL (Ac-[Pen]-N-T-[W(7-Me)]-[Lys(octanoic)]-[Pen]-Phe[4-(2-aminoethoxy)]-[2-Nal]-[a-MeLys]-[Lys(Ac)]-N-[(D)Leu]-NH2; Pen-Pen disulfide) [Peptide of SEQ ID NO: 317] | – | 13 nM
34 | Ac-[Pen]NT[Trp(7-Me)]K(Ac)[Pen][His_Bzl][2Nal][αMeK]K(Ac)N[dL]-NH2 (disulfide 1-6 (inferred)) [Peptide of SEQ ID NO: 293] | – | 224 nM
35 | XNTXQXXXXKLX (Ac-[Pen]-NT-[W(7-Me)]-Q-[Pen]-Phe[4-(2-aminoethoxy)]-[2-Nal]-[a-MeLeu]-[Lys(Ac)]-[(D)Leu]-[bA]-NH2; Pen-Pen disulfide) [Peptide of SEQ ID NO: 210] | > 500 nM | 66.1 nM
36 | Ac-[Pen]NTX[Cit][Pen][AEF][2Nal][αMeK]K(Ac)[βAla][βAla]-NH2 (disulfide 1-6; not fully specified (residue 4); printed as Ac-[Pen]-N-T-[W(1-Me)]-[Cit]-[Pen]-Phe[4-(2-aminoethoxy)]-[2-Nal]-[a-MeLys]-[Lys(Ac)]-[bA]-[bA]-NH2, Pen-Pen disulfide) [Peptide of SEQ ID NO: 280] | – | 17.1 nM
